Results taken from publication PMC10923007.

Tests used:
[1] = target: ^GSTCAND1 from bacterial cells (UniProt Q86VP6); assay: pull-down
[2] = target: ^GSTCAND1 from insect cells (UniProt Q86VP6); assay: pull-down
[3] = target: CUL2^AMCA•RBX1 preassembled with VBC (UniProt Q13617); assay: FRET or BRET

Sequence of RBX1•^StrepIICUL2^FL (Q13617 whole entry): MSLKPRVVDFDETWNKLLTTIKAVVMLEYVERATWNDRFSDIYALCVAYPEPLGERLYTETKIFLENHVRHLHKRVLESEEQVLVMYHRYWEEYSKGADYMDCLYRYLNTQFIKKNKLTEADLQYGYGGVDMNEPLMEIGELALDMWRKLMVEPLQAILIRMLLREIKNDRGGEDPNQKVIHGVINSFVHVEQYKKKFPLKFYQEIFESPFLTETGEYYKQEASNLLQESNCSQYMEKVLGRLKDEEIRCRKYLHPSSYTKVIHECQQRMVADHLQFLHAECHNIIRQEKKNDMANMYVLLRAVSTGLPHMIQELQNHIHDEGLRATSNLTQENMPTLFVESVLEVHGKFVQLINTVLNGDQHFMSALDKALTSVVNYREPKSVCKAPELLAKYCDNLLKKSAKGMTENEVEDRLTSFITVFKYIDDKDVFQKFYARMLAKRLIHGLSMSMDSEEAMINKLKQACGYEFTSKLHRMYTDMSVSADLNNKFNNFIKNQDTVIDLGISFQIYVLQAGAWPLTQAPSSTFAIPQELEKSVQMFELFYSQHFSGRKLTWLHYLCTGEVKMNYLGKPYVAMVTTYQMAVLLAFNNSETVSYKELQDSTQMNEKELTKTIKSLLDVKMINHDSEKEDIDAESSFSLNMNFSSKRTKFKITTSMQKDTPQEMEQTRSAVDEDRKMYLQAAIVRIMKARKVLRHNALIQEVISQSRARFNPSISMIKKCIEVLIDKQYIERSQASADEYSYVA
Sequence of RBX1•^StrepIICUL2^FL (P62877 whole entry): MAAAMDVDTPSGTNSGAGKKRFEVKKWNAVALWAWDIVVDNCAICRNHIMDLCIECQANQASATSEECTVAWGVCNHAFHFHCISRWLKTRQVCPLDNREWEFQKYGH
Sequence of ^GSTCAND1 from bacterial cells (Q86VP6 whole entry): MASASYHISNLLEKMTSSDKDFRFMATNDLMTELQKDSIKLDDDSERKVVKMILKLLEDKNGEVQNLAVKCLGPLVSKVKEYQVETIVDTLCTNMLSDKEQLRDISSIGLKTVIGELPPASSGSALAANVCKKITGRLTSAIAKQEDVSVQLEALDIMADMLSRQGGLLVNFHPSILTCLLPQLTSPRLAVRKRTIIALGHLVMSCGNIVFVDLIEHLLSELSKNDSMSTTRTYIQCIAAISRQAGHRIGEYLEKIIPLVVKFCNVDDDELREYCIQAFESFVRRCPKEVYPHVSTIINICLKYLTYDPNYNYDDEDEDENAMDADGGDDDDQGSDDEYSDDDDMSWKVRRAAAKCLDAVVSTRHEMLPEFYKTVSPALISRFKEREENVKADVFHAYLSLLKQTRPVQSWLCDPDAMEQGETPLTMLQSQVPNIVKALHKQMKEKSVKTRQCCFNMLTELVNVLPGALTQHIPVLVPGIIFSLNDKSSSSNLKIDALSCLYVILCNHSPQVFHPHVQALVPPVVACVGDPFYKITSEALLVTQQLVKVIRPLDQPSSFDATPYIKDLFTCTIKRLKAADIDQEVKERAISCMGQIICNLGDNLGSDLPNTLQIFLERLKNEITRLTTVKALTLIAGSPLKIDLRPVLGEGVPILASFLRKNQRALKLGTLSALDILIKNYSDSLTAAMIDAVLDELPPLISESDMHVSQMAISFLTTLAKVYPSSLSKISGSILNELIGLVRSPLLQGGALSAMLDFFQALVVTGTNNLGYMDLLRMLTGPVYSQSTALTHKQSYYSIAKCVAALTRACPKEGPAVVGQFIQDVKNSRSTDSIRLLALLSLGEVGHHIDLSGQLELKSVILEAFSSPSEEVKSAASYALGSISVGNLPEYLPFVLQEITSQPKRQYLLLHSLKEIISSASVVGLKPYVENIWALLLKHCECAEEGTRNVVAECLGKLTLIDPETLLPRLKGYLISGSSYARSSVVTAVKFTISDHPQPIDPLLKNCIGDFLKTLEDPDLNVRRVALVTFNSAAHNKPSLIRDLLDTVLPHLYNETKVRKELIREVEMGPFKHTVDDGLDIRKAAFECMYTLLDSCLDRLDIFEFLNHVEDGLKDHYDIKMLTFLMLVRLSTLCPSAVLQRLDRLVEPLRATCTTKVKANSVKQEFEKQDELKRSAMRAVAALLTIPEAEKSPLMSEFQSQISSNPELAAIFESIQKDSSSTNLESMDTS
Sequence of ^FlAsHCAND1 from insect cells (Q86VP6 whole entry): as above
Sequence of ^GSTCAND1 from insect cells (Q86VP6 whole entry): as above

Substance: RBX1•^StrepIICUL2^FL (from UniProt Q13617 1-745; P62877 1-108) (complex)
- t1/2 of dissociation [1]: 3.5 min
- t1/2 of dissociation [2]: 16 min

Substance: ^FlAsHCAND1 from insect cells (from UniProt Q86VP6 1-1230) (natural protein)
- kon [3]: 9.8e+07 M⁻¹ s⁻¹
